Reference: the Human Domainome abundance scans (Beltran et al. 2025)
± gives the uncertainty stated by the source.

B1: Ankyrin repeat and SOCS box protein 14, residues 532 to 572; numbered along this chain, A6NK59 (parent)
chain: RSLKHLCRLKIRKCMGRLHLRCPVFMSFLPLPNRLKAYVLY

Variants of: B1
Assay: abundance fitness (aPCA) (normalised: wild type 0, dead -1); higher = more abundant; growth selection in yeast, the domain comes from the species named
Conditions: Homo sapiens

Question: Which abundance fitness does the source give for RSLKHLCRLVIRKCMGRLHLRCPVFMSFLPLPNRLKAYVLY [K10V] here?
Answer: 0.406 ± 0.052

Question: Which abundance fitness does the source give for RSLKHLCRLTIRKCMGRLHLRCPVFMSFLPLPNRLKAYVLY [K10T] here?
Answer: 0.039 ± 0.057

Question: With RSLKHLCRLKIRKCMGRLHLRCPQFMSFLPLPNRLKAYVLY [V24Q] as the variant, how does the abundance fitness read?
Answer: 0.242 ± 0.076

Question: For RSLKHLCRLKIRKCMGRLHLRCPFFMSFLPLPNRLKAYVLY [V24F], which abundance fitness is on record?
Answer: 0.469 ± 0.14

Question: With RSLKHLCRLKIRKCMGRLHLRCEVFMSFLPLPNRLKAYVLY [P23E] as the variant, how does the abundance fitness read?
Answer: 0.36 ± 0.071

Question: Which abundance fitness does the source give for RSLKHLCRLKIRKCMGRLHLRCGVFMSFLPLPNRLKAYVLY [P23G] here?
Answer: 0.198 ± 0.05

Question: Which abundance fitness does the source give for RSLKHLCRLKIRKCMGRLHLRCMVFMSFLPLPNRLKAYVLY [P23M] here?
Answer: 0.334 ± 0.097

Question: For RSLGHLCRLKIRKCMGRLHLRCPVFMSFLPLPNRLKAYVLY [K4G], which abundance fitness is on record?
Answer: -0.157 ± 0.048

Question: Which abundance fitness does the source give for RSLQHLCRLKIRKCMGRLHLRCPVFMSFLPLPNRLKAYVLY [K4Q] here?
Answer: -0.425 ± 0.083

Question: With RSLDHLCRLKIRKCMGRLHLRCPVFMSFLPLPNRLKAYVLY [K4D] as the variant, how does the abundance fitness read?
Answer: -0.808 ± 0.36

Question: For RSLNHLCRLKIRKCMGRLHLRCPVFMSFLPLPNRLKAYVLY [K4N], which abundance fitness is on record?
Answer: -0.344 ± 0.13

Question: For RSLMHLCRLKIRKCMGRLHLRCPVFMSFLPLPNRLKAYVLY [K4M], which abundance fitness is on record?
Answer: -0.002 ± 0.068

Question: For RSLSHLCRLKIRKCMGRLHLRCPVFMSFLPLPNRLKAYVLY [K4S], which abundance fitness is on record?
Answer: -0.135 ± 0.086

Question: For RSLKHLCRLKIPKCMGRLHLRCPVFMSFLPLPNRLKAYVLY [R12P], which abundance fitness is on record?
Answer: -0.235 ± 0.079

Question: With RSLKHLCRLKIAKCMGRLHLRCPVFMSFLPLPNRLKAYVLY [R12A] as the variant, how does the abundance fitness read?
Answer: -0.261 ± 0.06

Question: For RSLKHLCRLKIRKCHGRLHLRCPVFMSFLPLPNRLKAYVLY [M15H], which abundance fitness is on record?
Answer: -0.794 ± 0.17

Question: With RSLKHLCRLKIRKCFGRLHLRCPVFMSFLPLPNRLKAYVLY [M15F] as the variant, how does the abundance fitness read?
Answer: -0.16 ± 0.23

Question: For RSLKHLCRLKIRKCQGRLHLRCPVFMSFLPLPNRLKAYVLY [M15Q], which abundance fitness is on record?
Answer: -0.576 ± 0.077

Question: With RSLKHLCRLKIRKCVGRLHLRCPVFMSFLPLPNRLKAYVLY [M15V] as the variant, how does the abundance fitness read?
Answer: -0.126 ± 0.074

Question: With RSLKHLCRLKIRKCMGRLHLRCPVFWSFLPLPNRLKAYVLY [M26W] as the variant, how does the abundance fitness read?
Answer: 0.118 ± 0.058

Question: With RSLKHLCRLKIRKCMGRLHLRCPVFPSFLPLPNRLKAYVLY [M26P] as the variant, how does the abundance fitness read?
Answer: -0.002 ± 0.068

Question: Which abundance fitness does the source give for RSLKHLCRLKIRKCMGRLHLRCPVFSSFLPLPNRLKAYVLY [M26S] here?
Answer: 0.018 ± 0.053

Question: For RSLKHLCRLKIRKCMGRLHLRCPVHMSFLPLPNRLKAYVLY [F25H], which abundance fitness is on record?
Answer: -0.447 ± 0.086

Question: Which abundance fitness does the source give for RSLKHLCRLKIRKCMGRLHLRCPVQMSFLPLPNRLKAYVLY [F25Q] here?
Answer: -0.123 ± 0.11

Question: Which abundance fitness does the source give for RSLKHLCRLKIRKCMGRLHLRCPVVMSFLPLPNRLKAYVLY [F25V] here?
Answer: 0.033 ± 0.059

Question: Which abundance fitness does the source give for RSLKHLCRLKIRKCMGRLHLRCPVIMSFLPLPNRLKAYVLY [F25I] here?
Answer: 0.316 ± 0.14

Question: For RSLKHLCRLKIRKCMGRLHLRCPVTMSFLPLPNRLKAYVLY [F25T], which abundance fitness is on record?
Answer: -0.243 ± 0.071

Question: Which abundance fitness does the source give for RSLKHLCRLKIRKHMGRLHLRCPVFMSFLPLPNRLKAYVLY [C14H] here?
Answer: -0.373 ± 0.13

Question: For RSLKHLCRLKIRKRMGRLHLRCPVFMSFLPLPNRLKAYVLY [C14R], which abundance fitness is on record?
Answer: -0.264 ± 0.047

Question: With RSLKHLCRLKIRKCMGRLHYRCPVFMSFLPLPNRLKAYVLY [L20Y] as the variant, how does the abundance fitness read?
Answer: -0.655 ± 0.12

Question: With RSLKHLCRLKIRKCMGRLHFRCPVFMSFLPLPNRLKAYVLY [L20F] as the variant, how does the abundance fitness read?
Answer: -0.026 ± 0.069

Question: Which abundance fitness does the source give for RSLKHLCRLKIRKCMGRLHQRCPVFMSFLPLPNRLKAYVLY [L20Q] here?
Answer: -0.087 ± 0.064

Question: With RSLKHLCRLKIRKCMGRLHLRCPVFMSFGPLPNRLKAYVLY [L29G] as the variant, how does the abundance fitness read?
Answer: -0.349 ± 0.052

Question: For RSLKHLCRLKIRKCMGRLHLRCPVFMSFAPLPNRLKAYVLY [L29A], which abundance fitness is on record?
Answer: -0.356 ± 0.053

Question: With RSLKHLCRLKIRKCMGRLHLRCPVFMSFLPLPNRLKAYVLM [Y41M] as the variant, how does the abundance fitness read?
Answer: 0.257 ± 0.094

Question: For RSLKHLCRLKIRKCMGRLHLRCPVFMSFLPLPNRLKAYVLN [Y41N], which abundance fitness is on record?
Answer: -0.052 ± 0.19

Question: With RSLKHLCRSKIRKCMGRLHLRCPVFMSFLPLPNRLKAYVLY [L9S] as the variant, how does the abundance fitness read?
Answer: 0.012 ± 0.052

Question: Which abundance fitness does the source give for RSLKHLCRCKIRKCMGRLHLRCPVFMSFLPLPNRLKAYVLY [L9C] here?
Answer: 0.119 ± 0.29

Question: Which abundance fitness does the source give for RSLKHLCRVKIRKCMGRLHLRCPVFMSFLPLPNRLKAYVLY [L9V] here?
Answer: -0.22 ± 0.055

Question: With RSLKHLCRLKIRKCMTRLHLRCPVFMSFLPLPNRLKAYVLY [G16T] as the variant, how does the abundance fitness read?
Answer: 0.12 ± 0.056

Question: With RSLKHLCRLKIRKCMRRLHLRCPVFMSFLPLPNRLKAYVLY [G16R] as the variant, how does the abundance fitness read?
Answer: 0.121 ± 0.045

Question: With RSLKHLCRLKIRKCMGRVHLRCPVFMSFLPLPNRLKAYVLY [L18V] as the variant, how does the abundance fitness read?
Answer: -0.392 ± 0.092

Question: For RSLKHLCRLKIRKCMGREHLRCPVFMSFLPLPNRLKAYVLY [L18E], which abundance fitness is on record?
Answer: -0.748 ± 0.13

Question: For RSLKHLCRLKIRKCMGRLHLRCPVFMSFLPLPNRDKAYVLY [L35D], which abundance fitness is on record?
Answer: -1.24 ± 0.23

Question: For RSLKHLCRLKIRKCMGRLHLRCPVFMSFLPLPNRWKAYVLY [L35W], which abundance fitness is on record?
Answer: 0.044 ± 0.082

Question: With RSLKHLCRLKIRKCMGRLHLRCPVFMSFLPLPNRGKAYVLY [L35G] as the variant, how does the abundance fitness read?
Answer: -1.13 ± 0.094

Question: With RSLKHLCRLKIRKCMGRLHLRCPVFMSFLPLPNRPKAYVLY [L35P] as the variant, how does the abundance fitness read?
Answer: -0.913 ± 0.19

Question: Which abundance fitness does the source give for RSLKHHCRLKIRKCMGRLHLRCPVFMSFLPLPNRLKAYVLY [L6H] here?
Answer: 0.054 ± 0.075

Question: With RSLKHQCRLKIRKCMGRLHLRCPVFMSFLPLPNRLKAYVLY [L6Q] as the variant, how does the abundance fitness read?
Answer: 0.261 ± 0.1

Question: With RSLKHLCRLKIRKCMGRLHLRQPVFMSFLPLPNRLKAYVLY [C22Q] as the variant, how does the abundance fitness read?
Answer: -0.521 ± 0.14

Question: Which abundance fitness does the source give for RSLKHLCRLKIRKCMGRLHLRRPVFMSFLPLPNRLKAYVLY [C22R] here?
Answer: -0.282 ± 0.057

Question: Which abundance fitness does the source give for RSLKHLCRLKIRKCMGRLHLRCPVFMSFLPLPNTLKAYVLY [R34T] here?
Answer: -0.203 ± 0.098

Question: For RSLKHLCRLKIRKCMGRLHLRCPVFMSFLPLPNGLKAYVLY [R34G], which abundance fitness is on record?
Answer: -0.29 ± 0.046

Question: Which abundance fitness does the source give for RSLKHLCRLKIRKCMGRLHLRCPVFMSFLPLPNSLKAYVLY [R34S] here?
Answer: -0.218 ± 0.066

Question: For RSLKHLCRLKIRKCMGRLHLRCPVFMSFLPLPNLLKAYVLY [R34L], which abundance fitness is on record?
Answer: -0.709 ± 0.095

Question: With RSLKHLCRLKIRKCMGRLHLRCPVFMSFLPLPNPLKAYVLY [R34P] as the variant, how does the abundance fitness read?
Answer: -0.582 ± 0.12

Question: With RSLKHLCRLKIRKCMGRLHLRCPVFMSFLPLPNRLKAYVPY [L40P] as the variant, how does the abundance fitness read?
Answer: -0.405 ± 0.13

Question: Which abundance fitness does the source give for RSLKHLCRLKIRKCMGRLHLECPVFMSFLPLPNRLKAYVLY [R21E] here?
Answer: -0.508 ± 0.1

Question: Which abundance fitness does the source give for RSLKHLCRLKIRKCMGRLHLICPVFMSFLPLPNRLKAYVLY [R21I] here?
Answer: 0.207 ± 0.083

Question: For RSLKHLCRLKIRKCMGRLHLMCPVFMSFLPLPNRLKAYVLY [R21M], which abundance fitness is on record?
Answer: 0.129 ± 0.11

Question: Which abundance fitness does the source give for RSLKHLCRLKIRKCMGRLHLTCPVFMSFLPLPNRLKAYVLY [R21T] here?
Answer: -0.178 ± 0.052
